Data on 51 variants can be found in the RNAGym collection of RNA variant scans (doi:10.1101/gr.219683.116).

B1: mRNA-splicing (parent)
chain: AGUUGCUGCUGGGAGCUCCAGCACAGUGAAAUGGACAGAAGGGCAGAGCAA

Variants of B1 are the subject of the data set. Description: exon inclusion enrichment index; higher = more inclusion; WT1 exon 5 minigene, HEK293.
For the variant AGUUCUUCUCGGGAGCUCCAGCACAGUGGGAUGGACAGAAGGGCAGAGCAA, the “exon inclusion enrichment index” value was determined as 1.37. AGUUACCUCCGGGAGCUCCAGCACAGUGAAAUGGACAGAAGGGCAGAGCAA: the “exon inclusion enrichment index” value stood at 1.92. Regarding AGUUCGCGCCGGGAGCUCCAGCACAGUGAAAUGGACAGAAGGGCAGGGCAA, the “exon inclusion enrichment index” value amounted to 0.871.

In the case of AGUUCUUCUCGGGAGCUCCACCACAGUGAAAUGGACAGAAGGGCAGAGCAA, the “exon inclusion enrichment index” value amounted to 1.57. With AGUUCUUCUCGGGAGCUCCAGCACAGUGAAAUGGACAGAAGAACAGAGCAA the figure was 4.1. With AGUUCUUCUCGGGAGCUCCAGCCCAGUGAAAUGGACAGAAGGGCAGAGCAA the figure was 1.9; with AGUUACCACCGGGAGCUCCAGCACAAGGAAAUGGACAGAAGGGCAGAGCAA, 2.93. With AGUUGACGACGGGAGCUCGAGCACAGUGAAAUGGACAGAAGGGCAGAGCAA the figure was 3.61; with AGUUGACGACGGGAGCUCCAGCACAGUGAAAUGGACGGAAGGGCAGAGCAA, 4.15. Turning to AGUUAUAUAUGGGAGCUCCAGCACAGUGAAAUGGAUCGAAGGGCAGAGCAA, the “exon inclusion enrichment index” value came out at 0.0296.

With AGUUAGGGAUGGGAGCUCCAGCACAGUGAAAUGGUUAGAAGGGCAGAGCAA, the “exon inclusion enrichment index” value turned out to be 0.000752. For AGUUGAAGAAGGGAGCUCCAGCACAGUGAAAUGGACAGAAGGCCAGAGCAA, the “exon inclusion enrichment index” value came out at 1. With AUAUUCUUUUGGGAGCUCCAGCACAGUGAAAUGGACAGAAGGGCAGAGCAA, the “exon inclusion enrichment index” value is 0.51. Next, AGUUCACACAGGGAGCUCCAGCACAGUGAAAUGAGCAGAAGGGCAGAGCAA: 0.0257. AGUUAGGGAUGGGAGCUCCAGCACAGUGAAAUGGGUAGAAGGGCAGAGCAA: the “exon inclusion enrichment index” value is 0.00169. As to AGUUUCUUUUCCGAGCUCCAGCACAGUGAAAUGGACAGAAGGGCAGAGCAA, the “exon inclusion enrichment index” value was found to be 0.0331. Next, AGUUAUAUAUCAGAGCUCCAGCACAGUGAAAUGGACAGAAGGGCAGAGCAA: 0.0128; AGUUACCACCGGGAGCUCCAGCACAGUGAACCGGACAGAAGGGCAGAGCAA: 3.58; AGUUCUUCUCGGGAGCUCCAGCACAGUGAAAUGGACAGUGGGGCAGAGCAA: 0.572. Next, AGUUGACGACGGGAGCUCCAGCACAGUGUAAUGGACAGAAGGGCAGAGCAA: 1.74; AGUUACCACCGGGUUCUCCAGCACAGUGAAAUGGACAGAAGGGCAGAGCAA: 0.953; AGUUACCACCGGGAGCCUCAGCACAGUGAAAUGGACAGAAGGGCAGAGCAA: 1.85. Next, AGUUGCUGCUGGCCGCUCCAGCACAGUGAAAUGGACAGAAGGGCAGAGCAA: 0.19.

In the case of AGUUACCACCGGGAGCUCCAGCUAAGUGAAAUGGACAGAAGGGCAGAGCAA, the “exon inclusion enrichment index” value is 1.02. With AGUUUCUUUUGGGAGCUCCAGCACCUUGAAAUGGACAGAAGGGCAGAGCAA the figure was 0.328; with AGUUUCUUUUGGGAGCUCCAGCACCCUGAAAUGGACAGAAGGGCAGAGCAA, 0.215; with AGUUGACGACGCGAGCUCCAGCACAGUGAAAUGGACAGAAGGGCAGAGCAA, 3.68. Next, AGUUGACGACGGGAGCUCCAGCACAGUGAAAUGAUCAGAAGGGCAGAGCAA: 1.68; AGUUAGGGAUGGGAGCUCCGUCACAGUGAAAUGGACAGAAGGGCAGAGCAA: 0.00168; AGUUACCACCGGGAGCUCCAGCACAGUGAAAUGGACAGAAGGGCAGUACAA: 1.85.

In the case of AGUUACCACCGGGAGCUCCAGCACAGUGAAAUGGACAGAAAUGCAGAGCAA, the “exon inclusion enrichment index” value was found to be 1.8. With AGUUAGGGAUGGGAGCUCCAGCACGAUGAAAUGGACAGAAGGGCAGAGCAA the figure was 0.0192. For AGUUGACGACGGGAGAGCCAGCACAGUGAAAUGGACAGAAGGGCAGAGCAA, the “exon inclusion enrichment index” value was found to be 2.33. Next, AGUUGACGACGGGAGCUCCCUCACAGUGAAAUGGACAGAAGGGCAGAGCAA: 2.72.

For AGUUAGGGAUGGGAGCUCCAGCACAGUGAAAUAGACAGAAGGGCAGAGCAA, the “exon inclusion enrichment index” value was 0.000879. Next, AGUUAUAAUUGGGAGCUCCAGCACAGUGAAAUGGACAGAAGGGCAGAGCAA: 0.0446. Next, AGUUCGCGCCGGGAGCUCCACGACAGUGAAAUGGACAGAAGGGCAGAGCAA: 4.61. With AGUUAUAUAUGGGAGCUCCAGCACAGUGGGAUGGACAGAAGGGCAGAGCAA the figure was 0.0286; with AGUUAUAUAGGGGAGCUCCAGCACAGUGAAAUGGACAGAAGGGCAGAGCAA, 0.00356. Consider AGUUACCACCGGGAACUCCAGCACAGUGAAAUGGACAGAAGGGCAGAGCAA, for which the “exon inclusion enrichment index” value was determined as 2.02. Next, AGUUCGCGCCGGGAGCUCCAGCACAGUGAAAUGGACAGAAACGCAGAGCAA: 3.88.

Consider AGUUCUUCUCGGGAGCUCCAGCACAGUGAAAUGUGCAGAAGGGCAGAGCAA, for which the “exon inclusion enrichment index” value turned out to be 0.537. Next, AGUUCGCGCCGGGAGCUCCGCCACAGUGAAAUGGACAGAAGGGCAGAGCAA: 2.95. Next, AGUUCUUCUCGGGAGCUCCAGCACAGUGAAAUGGACACUAGGGCAGAGCAA: 0.141. Next, AGUUACCACCGGGAGCUCCAGUGCAGUGAAAUGGACAGAAGGGCAGAGCAA: 2.69; AGUUCUUCUCGGGAGCUCCAGCACAGUGAAAUCGACAGAAGGGCAGAGCAA: 2.15. As to AGCUCUUCUCGGGAGCUCCAGCACAGUGAAAUGGACAGAAGGGCAGAGCAA, the “exon inclusion enrichment index” value was 0.338. In the case of AGUUACCACCGGGAGCUCCAGGCCAGUGAAAUGGACAGAAGGGCAGAGCAA, the “exon inclusion enrichment index” value came to 1.24. With AGUUCUUCUCGGGAGCUCUAGCACAGUGAAAUGGACAGAAGGGCAGAGCAA the figure was 0.105. Next, AGUUCACACAGGGAGCUCCAGCACAGGAAAAUGGACAGAAGGGCAGAGCAA: 0.122; AGUUCUUCUCGAAAGCUCCAGCACAGUGAAAUGGACAGAAGGGCAGAGCAA: 0.681.
